Results: the RNAGym collection of RNA variant scans (doi:10.1021/acssynbio.7b00057)

B1: Pistol ribozyme (parent)
chain: GGGUCGUUGUUCCAUAAUCGCGUGGAUAUGGCACGCAAGUUUCUACCGGGCACCGUAAAUGUCCGACUGGAGCCGUUCGGGCGGCUAUAAACAGACCUCAGGCCCGAAGCGUGGCGGCACCUGCCGCCGGUGGUAAAAAAGAUCGGAAGAGCACACGUCU

Variants of: B1
Assay: aptazyme ON/OFF ratio, guanine; higher = stronger switching; co-transcriptional cleavage with and without guanine

Point of comparison: U7C U8A G9C U10G U11C C12G C13U, “aptazyme ON/OFF ratio” value 1.19. Against it:
- U7C U8A G9U U11C C12G — lower, 1.14
- U7C U8A G9U U11C C12A — lower, 1.13
- U7C U8A G9C U10G U11G C13G — lower, 1.11
- U7C U8A G9C U10G U11G C13U — lower, 1.14
- U7C U8A G9C U10G U11G C13A — lower, 1.13
- U7C U8A G9U U10G U11G — lower, 1.08
- U7C U8A G9U U10G U11C — lower, 1.07
- U7C U8A G9U U10G U11A — lower, 1.05
- U7C U8A G9C U11C C12U C13A — lower, 1.11
- U7C U8A G9C U11C C12U C13G — lower, 1.06
- U7C U8A G9C U11C C12U C13U — lower, 1.12
- U7C U8A G9U U10C U11A C12A — lower, 1.13
- U7C U8A G9U U10C U11A C12U — lower, 1.12
- U7C U8A G9U U10C U11A C12G — lower, 1.12
- U7C U8A G9U U10A U11C C13G — lower, 1.05
- U7C U8A G9U U10A U11C C13A — lower, 1.07
- U7C U8A G9U U10A U11C C13U — lower, 1.06
- U7C U8A G9U U10A U11A C12U — lower, 1.14
- U7C U8A G9U U10A U11A C12A — lower, 1.1
- U7C U8A G9U U10A U11A C12G — lower, 1.17
- U7C U8A G9C U10G U11G C12G C13G — lower, 1.13
- U7C U8A G9C U10G U11G C12G C13U — lower, 1.09
- U7C U8A G9C U10G U11G C12G C13A — lower, 1.11
- U7C U8A G9U U11C C12G C13G — lower, 1.12
- U7C U8A G9U U11C C12G C13A — lower, 1.17
- U7C U8A G9U U11C C12G C13U — lower, 1.16
- U7C U8A G9U U10G U11G C12A C13G — lower, 1.11
- U7C U8A G9U U10G U11G C12A C13U — higher, 1.26
- U7C U8A G9U U10G U11G C12A C13A — lower, 1.07
- U7C U8A G9U U10G U11G C13G — lower, 1.04
- U7C U8A G9U U10G U11G C13A — lower, 1.13
- U7C U8A G9U U10G U11G C13U — lower, 1.06
- U7C U8A G9U U10G C12G C13U — higher, 1.22
- U7C U8A G9U U10G C12G C13G — lower, 1.12
- U7C U8A G9U U10G C12G C13A — lower, 1.12
- U7C U8A G9U U10A U11G C13U — lower, 1.17
- U7C U8A G9U U10A U11G C13G — lower, 1.03
- U7C U8A G9U U10A U11G C13A — lower, 1.16
- U7C U8A G9U U10C U11A C12G C13A — lower, 1.1
- U7C U8A G9U U10C U11A C12G C13U — lower, 1.13
- U7C U8A G9U U10C U11A C12G C13G — lower, 1.09
- U7C U8A G9U U10C U11C C12U — lower, 1.08
- U7C U8A G9U U10C U11C C12A — lower, 1.06
- U7C U8A G9U U10C U11C C12G — lower, 1.03
- U7C U8A G9U C12A — lower, 1.06
- U7C U8A G9U C12G — lower, 1.16
- U7C U8A G9U C12U — higher, 1.34
- U7C U8A G9U U10G U11G C12G C13A — higher, 1.21
- U7C U8A G9U U10G U11G C12G C13U — lower, 1.14
- U7C U8A G9U U10G U11G C12G C13G — lower, 1.14
- U7C U8A G9C U10G U11C C12A C13G — higher, 1.21
- U7C U8A G9C U10G U11C C12A C13U — higher, 1.43
- U7C U8A G9C U10G U11C C12A C13A — higher, 1.36
- U7C U8A G9U C13A — lower, 1.16
- U7C U8A G9U C13G — lower, 1.03
- U7C U8A G9U C13U — higher, 1.28
- U7C U8A G9C U11C C12G C13G — lower, 1.12
- U7C U8A G9C U11C C12G C13A — lower, 1.07
- U7C U8A G9C U11C C12G C13U — lower, 1.1
- U7C U8A G9U U10A U11C C12A C13G — lower, 1.17
- U7C U8A G9U U10A U11C C12A C13U — higher, 1.22
- U7C U8A G9U U10A U11C C12A C13A — lower, 1.18
- U7C U8A G9U U10G C12U C13G — higher, 1.25
- U7C U8A G9U U10G C12U C13U — higher, 1.27
- U7C U8A G9U U10G C12U C13A — lower, 1.1
- U7C U8A G9U U10A U11C C12G — higher, 1.28
- U7C U8A G9U U10A U11C C12U — lower, 1.07
- U7C U8A G9U U10A U11C C12A — lower, 1.15
- U7C U8A G9U U10G U11A C13U — lower, 1.03
- U7C U8A G9U U10G U11A C13G — lower, 1.07
- U7C U8A G9U U10G U11A C13A — lower, 1.06
- U7C U8A G9C U11G C12A C13U — lower, 1.15
- U7C U8A G9C U11G C12A C13A — lower, 1.13
- U7C U8A G9C U11G C12A C13G — lower, 1.15
- U7C U8A G9U U11C C12U C13U — higher, 1.21
- U7C U8A G9U U11C C12U C13G — lower, 1
- U7C U8A G9U U11C C12U C13A — lower, 1.05
- U7C U8A G9C U10G U11C C12G C13A — higher, 1.25
- U7C U8A G9C U10G U11C C12G C13G — higher, 1.23
- U7C U8A G9C U11G C12A — lower, 1.06
- U7C U8A G9C U11G C12U — higher, 1.29
- U7C U8A G9C U11G C12G — higher, 1.2
